Reference: paper PMC5393062

Columns and labels:
Assay in all cases: fluorescence polarization
[1] = biological target: pNOB8 ParA(K58E) (Sulfolobus NOB8H2, plasmid pNOB8) (UniProt O93708); settings: FP: 25 mM Tris-HCl pH 7.5, 100 mM NaCl, 1 nM 5'-fluorescein DNA, with ATP/AMPPNP, ADP or no nucleotide; temperature not stated. Crystals: 20% PEG 4000, 10% …
[2] = biological target: pNOB8 ParA(R52E-K218E) (Sulfolobus NOB8H2, plasmid pNOB8) (UniProt O93708); settings: FP: 25 mM Tris-HCl pH 7.5, 100 mM NaCl, 1 nM 5'-fluorescein DNA, with ATP/AMPPNP, ADP or no nucleotide; temperature not stated. Crystals: 20% PEG 4000, 10% …
[3] = biological target: pNOB8 ParA(R52E-K221E) (Sulfolobus NOB8H2, plasmid pNOB8) (UniProt O93708); settings: FP: 25 mM Tris-HCl pH 7.5, 100 mM NaCl, 1 nM 5'-fluorescein DNA, with ATP/AMPPNP, ADP or no nucleotide; temperature not stated. Crystals: 20% PEG 4000, 10% …
[4] = biological target: pNOB8 ParA (Sulfolobus NOB8H2, plasmid pNOB8) (UniProt O93708); settings: FP: 25 mM Tris-HCl pH 7.5, 100 mM NaCl, 1 nM 5'-fluorescein DNA, with ATP/AMPPNP, ADP or no nucleotide, temperature not stated. Crystals: 20% PEG 4000, 10% …
[5] = biological target: pNOB8 ParA(K270E) (Sulfolobus NOB8H2, plasmid pNOB8) (UniProt O93708); settings: FP: 25 mM Tris-HCl pH 7.5, 100 mM NaCl, 1 nM 5'-fluorescein DNA, with ATP/AMPPNP, ADP or no nucleotide; temperature not stated. Crystals: 20% PEG 4000, 10% …

Sequence: TGACGCCGGCGTCA (double strand) [14mer nsDNA, FP probe]
- Kd [1]: 274 nM
- Kd [2]: 3190 nM
- Kd [3]: 5930 nM
- Kd ([4]; AMPPNP, stoichiometry ~1 ParA dimer to 2 duplexes at 1 uM DNA): 116 nM
- Kd [4]: 120 nM
- Kd [5]: 300 nM
